Measured values published in paper PMC9602519, “A Novel Cryptic Clostridial Peptide That Kills Bacteria by a Cell Membrane Permeabilization Mechanism” (Microbiology Spectrum, 2022).

Molecular target: the molecule itself
Test: AUC; sedimentation velocity, 50,000 rpm, 20°C, absorbance at 230 nm; 10 mM sodium bicarbonate, 5 mM sodium phosphate (pH 6.8), 100 mM NaCl; with 20 mM DPC detergent (membrane mimic); c(s) distribution in SEDFIT

B1: Intestinalin (P30) (peptide)
peptide: KNLLRRIRRKLRNKFSRSDVIKTPKIVEVN
notes: N-terminal region of the LysC autolysin of Clostridium intestinale URNW
In the case of B1, the “stoichiometry N” value is reported as 3.
